Experimental data from article PMC6255772, “Enhanced anti-metastatic bioactivity of an IGF-TRAP re-engineered to improve physicochemical properties” (Scientific Reports, 2018).

How the values were obtained:
recombinant human IGF-2 = biological target: T1, recombinant human IGF-2 (human); assay: SPR; Biacore T200, competition in solution: 5 nM hIGF-1 or hIGF-2 incubated 1 h with 0.12-500 nM IGF-TRAP, injected over about 4000 RU MEDI-573 amine-coupled to a CM-5 chip; free ligand read 10 s after end of injection; PBS 0.05% Tween 20, 25 °C; conditions: both partners purified
T1 construct: human insulin-like growth factor 2, recombinant; also called rhIGF-2; hIGF-2; source: bought: Sigma-Aldrich

recombinant human IGF-1 = biological target: T2, recombinant human IGF-1 (Homo sapiens, UniProt P05019); assay: as above; conditions: both partners purified
T2 construct: human insulin-like growth factor 1, recombinant; also called rhIGF-1; hIGF-1; source: bought: Sigma-Aldrich
T2 sequence (P05019 49-118): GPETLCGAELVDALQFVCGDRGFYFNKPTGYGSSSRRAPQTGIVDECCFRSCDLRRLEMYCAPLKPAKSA

binding result (recombinant human IGF-2): binds
binding result (recombinant human IGF-1): binds
B1: dusigitumab (MEDI-573) (antibody, V domains shown)
VH: QVQLVQSGAEVKKPGASVKVSCKASGYTFTSYDINWVRQATGQGLEWMGWMNPNSGNTGYAQKFQGRVTMTRNTSISTAYMELSSLRSEDTAVYYCARDPYYYYYGMDVWGQGTTVTVSS
VL: QSVLTQPPSVSAAPGQKVTISCSGSSSNIENNHVSWYQQLPGTAPKLLIYDNNKRPSGIPDRFSGSKSGTSATLGITGLQTGDEADYYCETWDTSLSAGRVFGGGTKLTVL
